The values below come from US20220332804A1 (CSL INNOVATION, published 2022).

Experiment in all cases: SPR, antibody captured, C2 as analyte;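 further: biacore SPR at 37 °C, anti-C2 mAbs captured via goat anti-human IgG on CM5 chips, double-referenced sensorgrams fit to a 1:1 kinetic or steady-state model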
(Surface plasmon resonance follows binding to a sensor surface in real time, without labels.)

The target of test [1] is T1, human C2 E267A (human, UniProt P06681 21-752).
T1 sequence: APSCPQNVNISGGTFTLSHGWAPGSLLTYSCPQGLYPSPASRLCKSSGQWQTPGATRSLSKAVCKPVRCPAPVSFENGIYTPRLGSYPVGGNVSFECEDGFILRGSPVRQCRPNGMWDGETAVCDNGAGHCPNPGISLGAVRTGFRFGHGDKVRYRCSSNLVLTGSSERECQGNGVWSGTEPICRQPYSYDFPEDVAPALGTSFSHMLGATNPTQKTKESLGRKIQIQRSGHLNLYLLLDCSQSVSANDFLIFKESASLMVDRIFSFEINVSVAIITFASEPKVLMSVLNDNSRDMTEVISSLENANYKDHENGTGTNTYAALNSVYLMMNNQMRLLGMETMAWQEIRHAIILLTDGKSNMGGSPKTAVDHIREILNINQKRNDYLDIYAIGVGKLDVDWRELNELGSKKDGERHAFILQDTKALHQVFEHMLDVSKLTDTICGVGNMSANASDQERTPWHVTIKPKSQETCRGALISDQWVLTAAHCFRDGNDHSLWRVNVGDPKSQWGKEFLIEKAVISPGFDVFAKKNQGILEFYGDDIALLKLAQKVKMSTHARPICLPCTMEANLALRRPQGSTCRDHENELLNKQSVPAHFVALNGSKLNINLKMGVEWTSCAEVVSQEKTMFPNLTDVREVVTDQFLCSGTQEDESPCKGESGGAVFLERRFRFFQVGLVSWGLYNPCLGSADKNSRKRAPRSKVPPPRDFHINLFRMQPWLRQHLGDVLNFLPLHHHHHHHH

Test [2] has as its target T2, human C2 G677A (human, UniProt P06681 21-752).
T2 sequence: T1 sequence with A247E, G657A

In test [3] the target is T3, human C2 G530A (human, UniProt P06681 21-752).
T3 sequence: T1 sequence with A247E, G510A

Test [4] deals with T4, human C2 H435A (human, UniProt P06681 21-752).
T4 sequence: T1 sequence with A247E, H415A

Substitutions are numbered along the chain they refer to.

B1: RF16-226 (antibody, human IgG4 S228P, lambda)
heavy: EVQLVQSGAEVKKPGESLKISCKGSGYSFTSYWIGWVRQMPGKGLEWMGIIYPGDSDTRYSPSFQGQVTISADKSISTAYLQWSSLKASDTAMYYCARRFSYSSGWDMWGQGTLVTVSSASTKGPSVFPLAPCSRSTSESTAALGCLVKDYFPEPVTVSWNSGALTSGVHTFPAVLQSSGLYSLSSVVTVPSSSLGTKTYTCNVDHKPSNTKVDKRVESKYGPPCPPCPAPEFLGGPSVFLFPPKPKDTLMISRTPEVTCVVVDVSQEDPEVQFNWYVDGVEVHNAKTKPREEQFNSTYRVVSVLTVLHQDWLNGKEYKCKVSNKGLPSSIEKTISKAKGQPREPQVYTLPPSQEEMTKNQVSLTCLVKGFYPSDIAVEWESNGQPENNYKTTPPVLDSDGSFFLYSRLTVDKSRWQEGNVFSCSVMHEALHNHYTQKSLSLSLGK
light: SYELTQPPSVSVSPGQTARITCSGDALTSKYVAWYQQKSGLAPLLVIYEDTRRPSGIPAKFSGSSSGSVATLTISGAHGDDEADYYCYSTDASGHQRVFGGGTKLTVLSQPKAAPSVTLFPPSSEELQANKATLVCLISDFYPGAVTVAWKADGSPVKAGVETTKPSKQSNNKYAASSYLSLTPEQWKSHRSYSCQVTHEGSTVEKTVAPTECS
notes: pH-dependent anti-C2 antibody from a phage display library; also called WT
Take B1: the Kd was 11.2 nM in test [1], 8.7 nM in test [2], 16.7 nM in test [3] and 24.3 nM in test [4].

For orientation: Kd means the free concentration of one partner at which half of the binding sites on the other are occupied at equilibrium, for simple one-to-one binding. A low value points to tighter binding.
